Measurements: patent US20260097076A1 (ELPIS BIOPHARMACEUTICALS, published 2026)

T1: B Cell Maturation Antigen (BCMA) on cells (UniProt Q02223 1-184, limits assumed)
T1 construct: whole, on cells; One molecule is used for the recombinant (CHOK1) and the endogenous (myeloma lines) cell-surface BCMA; also called tumor necrosis factor receptor superfamily member 17 (TNFRSF17); CD269
T1 sequence (looked up): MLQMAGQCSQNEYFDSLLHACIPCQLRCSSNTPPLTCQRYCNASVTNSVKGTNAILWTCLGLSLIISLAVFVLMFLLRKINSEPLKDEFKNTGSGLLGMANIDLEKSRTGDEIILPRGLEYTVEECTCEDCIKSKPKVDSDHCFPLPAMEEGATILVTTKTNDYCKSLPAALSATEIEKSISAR

T2: Human BCMA-Fc (human, UniProt Q02223 1-54)
T2 construct: also called human BCMA-Fc protein; recombinant BCMA-Fc fusion protein; not shown: Fc part (captured by anti-human Fc antibody or Protein A)
T2 sequence (looked up): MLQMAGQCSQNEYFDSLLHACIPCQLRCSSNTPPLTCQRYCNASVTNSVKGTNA


How the values were obtained:
[1] = molecular target: T1, B Cell Maturation Antigen (BCMA) on …; assay: flow cytometry, serial diluted scFv on BCMA/CHOK1 cells
Description: Cells were spun down at 1200 rpm for 6 minutes at 4° C. to remove primary antibodies. Cells were then washed once with 200 μL of full medium per well. Samples were detected with premixed anti-His Biotin Streptavidin Alexa fluor 647 by adding 100 μL of diluted secondary antibody and incubated at 4° C. for 30 minutes in the dark. Samples were spun down at 1200 rpm for 5 minutes at 4° C. and washed twice with 200 μL of 1×PBS per well. Reconstituted samples in 200 μL of 1×PBS and read on Attune NxT cytometer. Analysis was done by Attune NxT software plotting the overlaying the histogram of anti-BCMA scFvs binding onto both negative and target cell lines. […] The BCMA cell binding affinity for exemplary anti-BCMA antibodies (in scFv format) was also generated with serial diluted scFvs as described above.

Human BCMA-Fc [2] = molecular target: T2, Human BCMA-Fc; assay: SPR, Biacore T200, BCMA-Fc captured on Protein A chip, scFv as analyte
Description: Kinetic analysis of anti-BCMA scFvs have been assessed by SPR technology with Biacore T200. The assay was run with Biacore T200 control software version 2.0. Protein A sensor chip was used to capture Fc fusion protein in the assay. For each cycle, 1 μg/mL of human BCMA-Fc protein was captured for 60 seconds at flow rate of 10 ul/min on flow cell 2 in 1×HBSP buffer on Protein A sensor chip. 2-fold serial diluted HIS tag purified anti-BCMA scFv was injected onto both reference flow cell 1 and BCMA-Fc captured flow cell 2 for 150 seconds at flow rate of 30 ul/min followed by wash for 300 seconds. The flow cells were then regenerated with Glycine pH2 buffer (GE) for 30 seconds at flow rate of 30 ul/mins. 8 concentration points from 300-0 nM was assayed per anti-BCMA scFv in a 96 well plate. The kinetics of scFvs binding to BCMA protein was analyzed with Biacore T200 evaluation software version 3.0. The specific binding response unit was derived from subtraction of binding to reference flow cell 1 from BCMA captured flow cell 2.

Human BCMA-Fc [3] = molecular target: T2, Human BCMA-Fc; assay: ELISA, human BCMA-Fc captured by anti-human Fc, scFv detected with anti-Flag HRP
Description: An ELISA assay was developed to determine the EC₅₀ of anti-BCMA antibodies. Briefly, 384 well plate was immobilized with anti-human Fc antibody at final concentration of 2 μg/mL in 1×PBS in total volume of 25 uL per well. The plate was incubated overnight at 4° C. followed by blocking with 80 μL of superblock per well for 1 hour. Human BCMA-Fc was captured through immobilized anti-hFc antibody. Purified anti-BCMA scFvs were 2-fold serial titrated from 200 nM. 25 μL of diluted scFv was added to human BCMA immobilized wells and incubated for 1 hour with shaking. The BCMA binding was detected by adding 25 μL of anti-Flag HRP diluted at 1:5000 in 1×PBST. In between each step, the plate was washed 3 times with 1×PBST in a plate washer. The plate was then developed with 20 μL of TMB substrate for 5 mins and stopped by adding 20 μL of 2 N sulfuric acid. The plate was read at OD450 nm Biotek plate reader and then plotted in Prism 8.1 software.

[4] = molecular target: T1, B Cell Maturation Antigen (BCMA) on …; assay: flow cytometry on H929 multiple myeloma cells (endogenous BCMA)
[5] = molecular target: T1, B Cell Maturation Antigen (BCMA) on …; assay: flow cytometry on MM1R multiple myeloma cells (endogenous BCMA)

Row | Binder | EC50 [1] | Kd (Human BCMA-Fc [2]) | koff (Human BCMA-Fc [2]) | kon (Human BCMA-Fc [2]) | EC50 (Human BCMA-Fc [3]) | EC50 [4] | EC50 [5]
1 | BC-08 (anti-BCMA antibody in scFv format) (scFv, Human scFv from mRNA display, VH-(G4S)3-VL, expressed in E. coli periplasm, His-purified; not shown: C-terminal flag and 6xHis tag) scFv: QVQLVQSGGGVVQPGRSLRLSCAASGFTFSSYAMHWVRQAPGKGLEWVAVISYDGSNKYYADSVKGRFTISRDNAENSVYLQMNSLRAEDTAVYYCARDEHQVVPNYRFDFWGQGSQVTVSSGGGGSGGGGSGGGGSQLVLTQPPSASGTPGQRVTISCSGSGSNIGSNDVSWYQQIPGTASKLLIYWNDQRPSGVPDRFSGSKSGTSASLAISGLQSEDEADYYCAAWDDSLNGWVFGGGTKLTVL | 1 nM | 0.653 nM | 0.00116 s⁻¹ | 1.78e+06 M⁻¹ s⁻¹ | 0.299 nM |  | 
2 | BC-09 (anti-BCMA antibody in scFv format) (scFv, Human scFv from mRNA display, VH-(G4S)3-VL, expressed in E. coli periplasm, His-purified; not shown: C-terminal flag and 6xHis tag) scFv: QVQLVQSGGGVVQPGGSLRLSCAASGFTFSSYGMHWVRQAPGKGLEWVAFIRYDGSNKYYADSVKGRFTISRDNSKNTLYLQMNSLRAEDTAVYYCAKDLWEFGGDYADYWGQGTLVTVSSGGGGSGGGGSGGGGSNIQMTQSPSSLSASVGDRVTITCQASQDISNYLNWYQQKPGKAPKLLIYDASNLETGVPSRFSGSGSGTDFTFTISSLQPEDIATYYCQQYDNLPLTFGGGTKVEIK | 5.28 nM | 19.6 nM | 0.00407 s⁻¹ | 208000 M⁻¹ s⁻¹ | 0.597 nM |  | 
3 | BC-06 (anti-BCMA antibody in scFv format) (scFv, Human scFv from mRNA display, VH-(G4S)3-VL, expressed in E. coli periplasm, His-purified; also called clone BC-06; not shown: C-terminal flag and 6xHis tag) scFv: EVQLVESGGGLVQPGRSLRLSCAASGFTFDDYAMHWVRQAPGKGLEWVSGISWNSGSIGYADSVKGRFTISRDNAKNSLYLQMNSLRAEDTALYYCAKVQPPGAFDIWGQGTMVTVSSGGGGSGGGGSGGGGSDIQLTQSPSFLSASVGDRVSITCRSTQGISSYLGWYQQKPGKAPKLLIYATSTLQSGVPSRFSGSGSGTEFTLTISSLQPEDFATYYCQQLYSFGQGTKLEIK | 1.9 nM | 7.87 nM | 0.00251 s⁻¹ | 319000 M⁻¹ s⁻¹ | 0.62 nM | 2.85 nM | 0.74 nM
4 | BC-07 (anti-BCMA antibody in scFv format) (scFv, Human scFv from mRNA display, VH-(G4S)3-VL, expressed in E. coli periplasm, His-purified; not shown: C-terminal flag and 6xHis tag) scFv: EVQLVESGGGLVQPGRSLRLSCAASGFTFDDYAMHWVRQAPGKGLEWVSGISWNSGSIGYADSVKGRFTISRDNAKNSLYLQMNSLRAEDTALYYCAKVQSPGAFDIWGQGTMVTVSSGGGGSGGGGSGGGGSDIQLTQSPSFLSASVGDRVSITCRSTQGISSYLGWYQQKPGKAPKLLIYATSTLQSGVPSRFSGSGSGTEFTLTISSLQPEDFATYYCQQLYSFGQGTKLEIK | 13.2 nM | 26.2 nM | 0.00592 s⁻¹ | 226000 M⁻¹ s⁻¹ | 0.802 nM |  | 

Other lines, results leading:

Row | EC50 [1] | Kd (Human BCMA-Fc [2]) | koff (Human BCMA-Fc [2]) | kon (Human BCMA-Fc [2]) | EC50 (Human BCMA-Fc [3]) | EC50 [4] | EC50 [5] | Binder
5 | 84 nM | 12.9 nM | 0.00118 s⁻¹ | 91600 M⁻¹ s⁻¹ | 1.92 nM |  |  | BC-02 (anti-BCMA antibody in scFv format) (scFv, Human scFv from mRNA display, VH-(G4S)3-VL, expressed in E. coli periplasm, His-purified; not shown: C-terminal flag and 6xHis tag) scFv: QVQLVQSGGGVVQPGGSLRLSCAASGFTFSSYGMHWVRQAPGKVLEWVAFIRYDGSNKYYADSVKGRFTISRDNSKNTLYLQMNSLRAEDTAVYYCAKDWDYYDSSGYYPDALGIWGQGTMVTVSSGGGGSGGGGSGGGGSEIVLTQSPSSLSASVGDRVTITCQASQDISNYLNWYQQKPGKAPKLLIYDASNLETGVPSRFSGSGSGTDFTFTISSLQPEDIATYYCQQYDNLPFTFGPGTKVDIK
6 | 16.1 nM | 11.9 nM | 0.00359 s⁻¹ | 302000 M⁻¹ s⁻¹ | 2.32 nM |  |  | BC-03 (anti-BCMA antibody in scFv format) (scFv, Human scFv from mRNA display, VH-(G4S)3-VL, expressed in E. coli periplasm, His-purified; not shown: C-terminal flag and 6xHis tag) scFv: QMQLVQSGGGVVQPGGSLRLSCAASGFTFSSYGMHWVRQAPGKGLEWVAFIRYDGSDKYYADSVKGRFTISRDNSKNTLYLQMNSLRAEDTAVYYCAKDLTTITPGYWGQGTLVTVSSGGGGSGGGGSGGGGSVIQMTQSPSSLSASVGDRVTITCQASQDISNYLNWYQQKPGKAPKLLIYDASNLETGVPSRFSGSGSGTDFTFTISSLQPEDIATYYCQQYDNLPLTFGGGTKVEIK
7 | 18.9 nM | 3 nM | 0.000431 s⁻¹ | 144000 M⁻¹ s⁻¹ | 0.938 nM |  |  | BC-01 (anti-BCMA antibody in scFv format) (scFv, Human scFv from mRNA display, VH-(G4S)3-VL, expressed in E. coli periplasm, His-purified; not shown: C-terminal flag and 6xHis tag) scFv: EVQLVQSGGGVVQPGGSLRLSCAASGFTFSSYGMHWVRQAPGKGLEWVAFIRYDGSNKYYADSVKGRFTISRDNSKNTLYLQMNSLRAEDTAVYYCAKDLWDGIVGAPAGYWGQGTLVTVSSGGGGSGGGGSGGGGSDVVMTQSPSSLSASVGDRVTITCQASQDISNYLNWYQQKPGKAPKLLIYDASNLETGVPSRFSGSGSGTDFTFTISSLQPEDIATYYCQQYDNLPLTFGGGTKVEIK
8 | 4.91 nM | 10.4 nM | 0.000646 s⁻¹ | 62400 M⁻¹ s⁻¹ | 0.536 nM |  |  | BC-05 (anti-BCMA antibody in scFv format) (scFv, Human scFv from mRNA display, VH-(G4S)3-VL, expressed in E. coli periplasm, His-purified; not shown: C-terminal flag and 6xHis tag) scFv: QMQLVQSGGGVVQPGGSLRLSCAASGFTFSSYGMHWVRQAPGKGLEWVAFIRYDGSNKYYADSVKGRFTISRDNSKNTLYLQMNSLRAEDTAVYYCAKDWEDPLYYYDTPFWGQGTLVTVSSGGGGSGGGGSGGGGSVIWMTQSPSSVSASVGDIITITCQASQDINNYLNWYQLKPGKAPKLLIYDASNVETGVPSRFSGSGSGTDFTFTISSLQPEDTATYYCQQYDKLPYTFGQGTKLEIK
